Data set [1] deals with Mycobacterium tuberculosis Kucore (entire C-terminus removed) (M. tuberculosis) (UniProt P9WKD9). The data set can be described thus: BLI; biotinylated Ku protein (25 ug/ml) loaded on streptavidin biosensors as ligand; 12.5 ug/ml LIG or POL as analyte; 37 C, 1000 rpm; 1x kinetics buffer (0.1% BSA, 0.02% Tween-20, 0.05% sodium azide in PBS); association 300 s, dissociation 300 s; grouped global fit; n = 4 technical replicates. (In general: Biolayer interferometry detects binding as a change in optical thickness at a sensor tip.)

Data set [2] has as its target Mycobacterium tuberculosis Kumin (extended C-terminus removed) (M. tuberculosis) (UniProt P9WKD9). The data set is described as above.
Data set [3] has as its target wildtype Ku (KuWT), Mycobacterium tuberculosis (M. tuberculosis) (UniProt P9WKD9). As to the kind of experiment: BLI; Octet RED96, 37°C, 1000 rpm; biotinylated Ku (25 ug/ml) loaded on streptavidin biosensors; LigD, LIG or POL as analyte (12.5 ug/ml), 300 s association, 300 s dissociation; 1x kinetics buffer (0.1% BSA, 0.02% Tween-20, 0.05% sodium azide in PBS); grouped global fit.

Data set [4] deals with the molecule itself. As to the kind of experiment: SEC-MALS; 50 uM protein; 50 mM HEPES pH 8.0, 1 mM EDTA, 200 mM NaCl; Superdex 200 Increase 10/300 GL.
Data set [5] deals with the molecule itself. The data set can be described thus: SEC-MALS; 50 uM protein in 50 mM HEPES pH 8.0, 1 mM EDTA, 200 mM NaCl; Superdex 200 Increase 10/300 GL; MiniDAWN and Optilab. On the technique in general: SEC sorts molecules by how far they enter the pores of the column.
The target of data set [6] is T1, LigD (wildtype), Mycobacterium tuberculosis (M. tuberculosis, UniProt P9WNV3 1-759).
T1 construct: The His tag is TEV-cleavable; also called wildtype LigD
T1 sequence (P9WNV3 whole entry): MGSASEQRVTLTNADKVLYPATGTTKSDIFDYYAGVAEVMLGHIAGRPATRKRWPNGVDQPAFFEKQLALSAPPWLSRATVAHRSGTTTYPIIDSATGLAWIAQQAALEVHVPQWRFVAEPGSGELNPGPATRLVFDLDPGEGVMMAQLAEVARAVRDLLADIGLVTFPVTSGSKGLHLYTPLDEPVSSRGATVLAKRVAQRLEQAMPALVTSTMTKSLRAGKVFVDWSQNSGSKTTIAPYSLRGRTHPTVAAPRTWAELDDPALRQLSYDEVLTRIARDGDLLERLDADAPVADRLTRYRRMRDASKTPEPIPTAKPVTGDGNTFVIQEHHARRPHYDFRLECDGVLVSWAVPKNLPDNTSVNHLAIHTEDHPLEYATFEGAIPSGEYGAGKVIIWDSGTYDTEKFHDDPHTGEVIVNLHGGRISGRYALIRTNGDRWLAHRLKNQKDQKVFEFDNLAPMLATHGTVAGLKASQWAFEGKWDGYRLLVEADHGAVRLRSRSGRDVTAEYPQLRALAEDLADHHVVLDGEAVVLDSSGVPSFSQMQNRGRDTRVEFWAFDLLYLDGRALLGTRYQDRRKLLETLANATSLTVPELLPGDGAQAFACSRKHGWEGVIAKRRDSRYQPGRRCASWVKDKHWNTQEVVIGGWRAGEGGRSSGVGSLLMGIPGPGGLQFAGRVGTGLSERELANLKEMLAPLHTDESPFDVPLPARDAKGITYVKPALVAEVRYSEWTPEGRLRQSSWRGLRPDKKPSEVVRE
The data set can be described thus: BLI; Octet RED96, 37°C, 1000 rpm; biotinylated Ku (25 ug/ml) loaded on streptavidin biosensors; LigD, LIG or POL as analyte (12.5 ug/ml), 300 s association, 300 s dissociation; 1x kinetics buffer (0.1% BSA, 0.02% Tween-20, 0.05% sodium azide in PBS); grouped global fit. The following applies: both partners purified.

As usually defined, the Kd is the equilibrium constant for the complex coming apart. For the molecule “polymerase domain of Mycobacterium tuberculosis LigD (domain or fragment)”, the Kd in data set [1] came out at 291 nM; in data set [2], 774 nM.

In data set [3], “LigD polymerase domain (POL), Mycobacterium tuberculosis (domain or fragment)” returned a Kd of 52.7 nM. In other words, the double-digit nanomolar range.

For “ligase domain of Mycobacterium tuberculosis LigD (domain or fragment)”, the Kd in data set [1] came out at 274 nM; in data set [2] it was 571 nM.

Consider “LigD ligase domain (LIG), Mycobacterium tuberculosis (domain or fragment)”, for which the Kd in data set [3] came to 81.4 nM.

B1: Mycobacterium tuberculosis Ku L251A (natural protein)
chain: MRAIWTGSIAFGLVNVPVKVYSATADHDIRFHQVHAKDNGRIRYKRVCEACGEVVDYRDLARAYESGDGQMVAITDDDIASLPEERSREIEVLEFVPAADVDPMMFDRSYFLEPDSKSSKSYVLLAKTLAETDRMAIVHFTLRNKTRLAALRVKDFGKREVMMVHTLLWPDEIRDPDFPVLDQKVEIKPAELKMAGQVVDSMADDFNPDRYHDTYQEQLQELIDTKLEGGQAFTAEDQPRLLDEPEDVSDALAKLEASVKARSKANSNVPTPP
As usually defined, the stoichiometry N is the number of molecules, sites or subunits per partner or assembly. B1: the “stoichiometry N” value in data set [4] was determined as 2.

B2: Ku L251A (M. tuberculosis) (natural protein)
chain: MRAIWTGSIAFGLVNVPVKVYSATADHDIRFHQVHAKDNGRIRYKRVCEACGEVVDYRDLARAYESGDGQMVAITDDDIASLPEERSREIEVLEFVPAADVDPMMFDRSYFLEPDSKSSKSYVLLAKTLAETDRMAIVHFTLRNKTRLAALRVKDFGKREVMMVHTLLWPDEIRDPDFPVLDQKVEIKPAELKMAGQVVDSMADDFNPDRYHDTYQEQLQELIDTKLEGGQAFTAEDQPRLLDEPEDVSDALAKLEASVKARSKANSNVPTPP
modifications: biotinylated with NHS-LC-Biotin for BLI only
Turning to B2, the “stoichiometry N” value in data set [5] came out at 2. Besides, the affinity in data set [6], expressed as Kd, was 134 nM.

B3: Mycobacterium tuberculosis Ku D250A (natural protein)
chain: MRAIWTGSIAFGLVNVPVKVYSATADHDIRFHQVHAKDNGRIRYKRVCEACGEVVDYRDLARAYESGDGQMVAITDDDIASLPEERSREIEVLEFVPAADVDPMMFDRSYFLEPDSKSSKSYVLLAKTLAETDRMAIVHFTLRNKTRLAALRVKDFGKREVMMVHTLLWPDEIRDPDFPVLDQKVEIKPAELKMAGQVVDSMADDFNPDRYHDTYQEQLQELIDTKLEGGQAFTAEDQPRLLDEPEDVSALLAKLEASVKARSKANSNVPTPP
As to B3, the “stoichiometry N” value in data set [4] was found to be 2.

B4: Ku S258A (M. tuberculosis) (natural protein)
chain: MRAIWTGSIAFGLVNVPVKVYSATADHDIRFHQVHAKDNGRIRYKRVCEACGEVVDYRDLARAYESGDGQMVAITDDDIASLPEERSREIEVLEFVPAADVDPMMFDRSYFLEPDSKSSKSYVLLAKTLAETDRMAIVHFTLRNKTRLAALRVKDFGKREVMMVHTLLWPDEIRDPDFPVLDQKVEIKPAELKMAGQVVDSMADDFNPDRYHDTYQEQLQELIDTKLEGGQAFTAEDQPRLLDEPEDVSDLLAKLEAAVKARSKANSNVPTPP
modifications: biotinylated with NHS-LC-Biotin for BLI only
As for B4, in data set [5], the “stoichiometry N” value turned out to be 2. The Kd in data set [6] turned out to be 258 nM.

B5: Ku D250A (M. tuberculosis) (natural protein)
chain: MRAIWTGSIAFGLVNVPVKVYSATADHDIRFHQVHAKDNGRIRYKRVCEACGEVVDYRDLARAYESGDGQMVAITDDDIASLPEERSREIEVLEFVPAADVDPMMFDRSYFLEPDSKSSKSYVLLAKTLAETDRMAIVHFTLRNKTRLAALRVKDFGKREVMMVHTLLWPDEIRDPDFPVLDQKVEIKPAELKMAGQVVDSMADDFNPDRYHDTYQEQLQELIDTKLEGGQAFTAEDQPRLLDEPEDVSALLAKLEASVKARSKANSNVPTPP
modifications: biotinylated with NHS-LC-Biotin for BLI only
As for B5, the “stoichiometry N” value in data set [5] turned out to be 2. Binding in data set [6] was put at a Kd of 219 nM.

B6: Ku D247A (M. tuberculosis) (natural protein)
chain: MRAIWTGSIAFGLVNVPVKVYSATADHDIRFHQVHAKDNGRIRYKRVCEACGEVVDYRDLARAYESGDGQMVAITDDDIASLPEERSREIEVLEFVPAADVDPMMFDRSYFLEPDSKSSKSYVLLAKTLAETDRMAIVHFTLRNKTRLAALRVKDFGKREVMMVHTLLWPDEIRDPDFPVLDQKVEIKPAELKMAGQVVDSMADDFNPDRYHDTYQEQLQELIDTKLEGGQAFTAEDQPRLLDEPEAVSDLLAKLEASVKARSKANSNVPTPP
modifications: biotinylated with NHS-LC-Biotin for BLI only
On to B6, for which the “stoichiometry N” value in data set [5] worked out at 2. In data set [6], this molecule gave a dissociation constant (Kd) of 189 nM.

B7: Mycobacterium tuberculosis Ku D247A (natural protein)
chain: MRAIWTGSIAFGLVNVPVKVYSATADHDIRFHQVHAKDNGRIRYKRVCEACGEVVDYRDLARAYESGDGQMVAITDDDIASLPEERSREIEVLEFVPAADVDPMMFDRSYFLEPDSKSSKSYVLLAKTLAETDRMAIVHFTLRNKTRLAALRVKDFGKREVMMVHTLLWPDEIRDPDFPVLDQKVEIKPAELKMAGQVVDSMADDFNPDRYHDTYQEQLQELIDTKLEGGQAFTAEDQPRLLDEPEAVSDLLAKLEASVKARSKANSNVPTPP
notes: The theoretical MW of 33.7 kDa equals that of KuWT
On to B7, for which, in data set [4], the “stoichiometry N” value was found to be 2.

B8: Ku R262A (M. tuberculosis) (natural protein)
chain: MRAIWTGSIAFGLVNVPVKVYSATADHDIRFHQVHAKDNGRIRYKRVCEACGEVVDYRDLARAYESGDGQMVAITDDDIASLPEERSREIEVLEFVPAADVDPMMFDRSYFLEPDSKSSKSYVLLAKTLAETDRMAIVHFTLRNKTRLAALRVKDFGKREVMMVHTLLWPDEIRDPDFPVLDQKVEIKPAELKMAGQVVDSMADDFNPDRYHDTYQEQLQELIDTKLEGGQAFTAEDQPRLLDEPEDVSDLLAKLEASVKAASKANSNVPTPP
modifications: biotinylated with NHS-LC-Biotin for BLI only
With B8, the “stoichiometry N” value in data set [5] worked out at 2. The Kd in data set [6] was found to be 125 nM.

B9: Mycobacterium tuberculosis Ku R262A (natural protein)
chain: MRAIWTGSIAFGLVNVPVKVYSATADHDIRFHQVHAKDNGRIRYKRVCEACGEVVDYRDLARAYESGDGQMVAITDDDIASLPEERSREIEVLEFVPAADVDPMMFDRSYFLEPDSKSSKSYVLLAKTLAETDRMAIVHFTLRNKTRLAALRVKDFGKREVMMVHTLLWPDEIRDPDFPVLDQKVEIKPAELKMAGQVVDSMADDFNPDRYHDTYQEQLQELIDTKLEGGQAFTAEDQPRLLDEPEDVSDLLAKLEASVKAASKANSNVPTPP
Consider B9, for which the “stoichiometry N” value in data set [4] was determined as 2.

B10: wildtype Ku (KuWT), Mycobacterium tuberculosis (natural protein)
chain: MRAIWTGSIAFGLVNVPVKVYSATADHDIRFHQVHAKDNGRIRYKRVCEACGEVVDYRDLARAYESGDGQMVAITDDDIASLPEERSREIEVLEFVPAADVDPMMFDRSYFLEPDSKSSKSYVLLAKTLAETDRMAIVHFTLRNKTRLAALRVKDFGKREVMMVHTLLWPDEIRDPDFPVLDQKVEIKPAELKMAGQVVDSMADDFNPDRYHDTYQEQLQELIDTKLEGGQAFTAEDQPRLLDEPEDVSDLLAKLEASVKARSKANSNVPTPP
modifications: biotinylated at multiple sites with NHS-LC-Biotin for BLI only (sites listed in Supplementary Table S3)
notes: The His tag is TEV-cleavable; Homodimer by SEC-MALS
On to B10, for which, in data set [5], the “stoichiometry N” value was 2. In addition, in data set [6], the Kd came out at 196 nM.

B11: Mycobacterium tuberculosis Ku S258A (natural protein)
chain: MRAIWTGSIAFGLVNVPVKVYSATADHDIRFHQVHAKDNGRIRYKRVCEACGEVVDYRDLARAYESGDGQMVAITDDDIASLPEERSREIEVLEFVPAADVDPMMFDRSYFLEPDSKSSKSYVLLAKTLAETDRMAIVHFTLRNKTRLAALRVKDFGKREVMMVHTLLWPDEIRDPDFPVLDQKVEIKPAELKMAGQVVDSMADDFNPDRYHDTYQEQLQELIDTKLEGGQAFTAEDQPRLLDEPEDVSDLLAKLEAAVKARSKANSNVPTPP
With B11, in data set [4], the “stoichiometry N” value is 2.

Values taken from PMC9638933.
